According to US20210261685A1 (Alector, published 2021):

T1: human MerTK extracellular domain (ECD), recombinant (human, UniProt Q12866 21-505)
T1 construct: also called huMerTK; not shown: polyHis tag or TEVS/Thrombin/murine IgG2a Fc tag
T1 sequence: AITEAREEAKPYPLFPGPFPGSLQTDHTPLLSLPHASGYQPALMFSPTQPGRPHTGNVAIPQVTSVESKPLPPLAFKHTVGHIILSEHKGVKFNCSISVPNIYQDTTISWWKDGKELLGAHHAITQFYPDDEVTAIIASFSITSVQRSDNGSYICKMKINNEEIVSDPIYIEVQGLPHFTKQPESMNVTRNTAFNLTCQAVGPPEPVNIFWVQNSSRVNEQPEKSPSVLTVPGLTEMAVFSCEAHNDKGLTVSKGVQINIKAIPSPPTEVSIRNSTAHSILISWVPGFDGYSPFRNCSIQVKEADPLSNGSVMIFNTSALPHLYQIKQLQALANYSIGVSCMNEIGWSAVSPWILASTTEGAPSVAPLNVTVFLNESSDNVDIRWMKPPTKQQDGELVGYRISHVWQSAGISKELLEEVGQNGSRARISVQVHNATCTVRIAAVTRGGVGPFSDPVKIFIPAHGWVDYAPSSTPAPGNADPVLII

T2: cyno MerTK extracellular domain (ECD), recombinant (cynomolgus monkey, UniProt Q12866 21-505 (human entry))
T2 construct: also called cynomolgus MerTK; not shown: polyHis tag or TEVS/Thrombin/murine IgG2a Fc tag
T2 chain: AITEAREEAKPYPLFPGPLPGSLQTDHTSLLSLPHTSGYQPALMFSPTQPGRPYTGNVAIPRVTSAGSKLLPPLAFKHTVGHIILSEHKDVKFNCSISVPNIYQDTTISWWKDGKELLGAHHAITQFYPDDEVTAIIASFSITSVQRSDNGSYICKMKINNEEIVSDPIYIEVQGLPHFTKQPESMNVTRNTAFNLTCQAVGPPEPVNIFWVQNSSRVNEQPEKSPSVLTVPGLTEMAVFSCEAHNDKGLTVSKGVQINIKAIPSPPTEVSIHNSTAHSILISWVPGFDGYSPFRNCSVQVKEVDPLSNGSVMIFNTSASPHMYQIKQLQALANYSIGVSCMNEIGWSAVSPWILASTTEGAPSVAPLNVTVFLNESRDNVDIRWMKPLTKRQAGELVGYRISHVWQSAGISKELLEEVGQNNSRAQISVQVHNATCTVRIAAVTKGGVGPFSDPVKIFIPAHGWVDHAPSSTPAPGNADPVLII

T3: murine MerTK extracellular domain (ECD), recombinant (mouse, UniProt Q60805 19-497)
T3 construct: also called moMerTK; mouse MerTK; not shown: polyHis tag or TEVS/Thrombin/murine IgG2a Fc tag
T3 sequence: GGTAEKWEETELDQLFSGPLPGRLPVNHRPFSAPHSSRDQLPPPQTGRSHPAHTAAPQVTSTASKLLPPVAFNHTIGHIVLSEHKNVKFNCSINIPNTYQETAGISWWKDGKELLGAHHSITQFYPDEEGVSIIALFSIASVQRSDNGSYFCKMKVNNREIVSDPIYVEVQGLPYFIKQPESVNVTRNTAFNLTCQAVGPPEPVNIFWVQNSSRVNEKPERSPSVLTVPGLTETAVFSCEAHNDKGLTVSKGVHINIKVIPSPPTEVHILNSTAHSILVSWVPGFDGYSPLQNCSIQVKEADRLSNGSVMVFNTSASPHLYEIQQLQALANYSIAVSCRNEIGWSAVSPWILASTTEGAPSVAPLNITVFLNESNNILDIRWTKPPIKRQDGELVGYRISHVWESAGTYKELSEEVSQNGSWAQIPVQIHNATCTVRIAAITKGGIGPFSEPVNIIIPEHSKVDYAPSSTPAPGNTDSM


What was measured:
Assay in all cases: SPR, Carterra LSA, antibody immobilised
[1] = target: T1, human MerTK extracellular domain (ECD), …
Experimental: (§1) Binding kinetics of humanized and affinity-matured anti-MerTK antibodies of the present disclosure to human, murine, and cynomolgus MerTK proteins were evaluated as follows. Briefly, anti-MerTK antibodies were prepared by diluting to 10 μg/ml in 10 mM Acetate, pH 4.25 (Carterra, Salt Lake City, Utah), at 300 μl/well. A HC200M sensor chip (Carterra) was activated using the single channel flow cell with a 7-minute injection of a 1:1:1 mixture of 100 mM MES pH 5.5, 100 mM sulfo-NHS, 400 mM EDC (all reconstituted in MES pH 5.5; 100 μl of each mixed in vial immediately before running assay). After switching to the multi-channel array flow cell, the antibodies were injected over the activated chip in a 96-spot array for 15 minutes. The remaining unconjugated active groups on the chip were then blocked by injecting 1M Ethanolamine pH 8.5 (Carterra) for 7 minutes using the single channel flow cell.
(§2) Estimates of affinity were generated by injecting each analyte over the entire antibody array using the single channel flow cell. MerTK analytes were diluted to 33.3, 100, and 300 nM in running buffer, and injected in serial from lowest to highest concentration without regeneration. Two buffer blanks were run between each series (one species per series). Data were processed and analyzed using NextGenKIT high-throughput kinetics analysis software (Carterra). In these experiments, the anti-MerTK antibodies were human IgG1 isotype containing the Fc variant LALAPS.
(§3) The equilibrium dissociation constants (KD) were then calculated from the fitted association and dissociation rate constants (k-on and k-off) for anti-MerTK antibodies of the present disclosure.

[2] = target: T2, cyno MerTK extracellular domain (ECD), …
Experimental: as §1, §2, §3

[3] = target: T3, murine MerTK extracellular domain …
Experimental: as §1, §2, §3

Kd [1] | Kd [2] | Kd [3] | Binder
2.1 nM | 2.4 nM | 59 nM | MTK-29.11 (antibody, human IgG1, V domains shown) VH: QVQLVQSGSELKKPGASVKVSCKASSYTFTTYGMSWVRQAPGQGLEWMGWINTDSGVPTYTDDFKGRFVFSLDTSVSTAYLQISSLKAEDTAVYYCARYTNYGVFDYWGQGTLVTVSS VL: EIVLTQSPATLSLSPGERATLSCRASSSVGYMHWYQQKPGQAPRLLIYATSNLASGIPARFSGSGSGTDFTLTISRLEPEDFAVYYCQQWGSLPFTFGGGTKLEIK
4.7 nM | 4.9 nM | 140 nM | MTK-29.18 (antibody, human IgG1, V domains shown) VH: QVQLVQSGSELKKPGASVKVSCKASGYIFTSYGLSWVRQAPGQGLEWMGWVNTYSGVPTYTDDFKGRFVFSLDTSVSTAYLQISSLKAEDTAVYYCARYTNYGVFDYWGQGTLVTVSS VL: EIVLTQSPATLSLSPGERATLSCRASSTVGYMHWYQQKPGQAPRLLIYATSNLASGIPARFSGSGSGTDFTLTISRLEPEDFAVYYCQQWGSLPFTFGGGTKLEIK
20 nM | 18 nM | 225 nM | MTK-33.13 (antibody, human IgG1, V domains shown) VH: QVQLVQSGAEVKKPGASVKVSCKASGYTFTSYWMHWVRQAPGQGLEWIGVIDPSDNYINYNQKFQGRVTMTRDTSTSTVYMELSSLRSEDTAVYYCAREAGTRGYFDYWGQGTLVTVSS VL: DIQMTQSPSSLSASVGDRVTITCQASRSVSNTVAWYQQKPGKAPKLLIYYASNRYTGVPSRFSGSGSGTDFTFTISSLQPEDIATYYCQQDYRSPFTFGQGTKLEIK
78 nM | 78 nM | 800 nM | MTK-33.7 (antibody, human IgG1, V domains shown) VH: QVQLVQSGAEVKKPGASVKVSCKASGYTFTSYWMHWVRQAPGQGLEWIGVIDPSDNYINYNAKFQGRVTMTRDTSTSTVYMELSSLRSEDTAVYYCAREAGTRGYFDYWGQGTLVTVSS VL: DIQMTQSPSSLSASVGDRVTITCGASQSVSNTVAWYQQKPGKAPKLLIYYASNRYTGVPSRFSGSGSGTDFTFTISSLQPEDIATYYCQQDYRSPFTFGQGTKLEIK
30.5 nM | 29 nM | 275 nM | MTK-33.14 (antibody, human IgG1, V domains shown) VH: QVQLVQSGAEVKKPGASVKVSCKASGYTFTSYWMHWVRQAPGQGLEWIGVIDPSDNYINYNQKFRGRVTMTRDTSTSTVYMELSSLRSEDTAVYYCAREAGTRGYFDYWGQGTLVTVSS VL: DIQMTQSPSSLSASVGDRVTITCQASQSVSNTVAWYQQKPGKAPKLLIYYASNRYTGVPSRFSGSGSGTDFTFTISSLQPEDIATYYCQQDYRSPFTFGQGTKLEIK
41 nM | 38 nM | 150 nM | MTK-33.10 (antibody, V domains shown) VH: QVQLVQSGAEVKKPGASVKVSCKASSYSFTSYWMHWVRQAPGQGLEWIGVIDPSDNYINYNQKFRGRVTMTRDTSTSTVYMELSSLRSEDTAVYYCAREAGTRGYFDYWGQGTLVTVSS VL: DIQMTQSPSSLSASVGDRVTITCQAGQSVSNTVAWYQQKPGKAPKLLIYYASNRYTGVPSRFSGSGSGTDFTFTISSLQPEDIATYYCQQDYRSPFTFGQGTKLEIK
11 nM | 10.1 nM | 115 nM | MTK-33.11 (antibody, human IgG1, V domains shown) VH: QVQLVQSGAEVKKPGASVKVSCKASGYTFTSYWMHWVRQAPGQGLEWIGVIDPSDNYINYNQKFQGRVTMTRDTSTSTVYMELSSLRSEDTAVYYCAREAWTRGYFDYWGQGTLVTVSS VL: DIQMTQSPSSLSASVGDRVTITCQASRSVRNTVAWYQQKPGKAPKLLIYYASNRYTGVPSRFSGSGSGTDFTFTISSLQPEDIATYYCQQDYRSPFTFGQGTKLEIK
28 nM | 26 nM | 140 nM | MTK-33.5 (antibody, human IgG1, V domains shown) VH: QVQLVQSGAEVKKPGASVKVSCMASGYTFGSYWMHWVRQAPGQGLEWIGVIDPSDNYINYNQKFQGRVTMTRDTSTSTVYMELSSLRSEDTAVYYCAREAGTRGYFDYWGQGTLVTVSS VL: DIQMTQSPSSLSASVGDRVTITCQASQSVSNTVAWYQQKPGKAPKLLIYYASNRETGVPSRFSGSGSGTDFTFTISSLQPEDIGTYYCQQDYRSPFTFGQGTKLEIK
20.4 nM | 19.9 nM | 505 nM | MTK-33.17 (antibody, human IgG1, V domains shown) VH: QVQLVQSGAEVKKPGASVKVSCKASGYTFTSYWMHWVRQAPGQGLEWIGVIAPSDNYINYNQKFRGRVTMTRDTSTSTVYMELSSLRSEDTAVYYCAREAGTRGYFDYWGQGTLVTVSS VL: DIQMTQSPSSLSASVGDRVTITCQASRSVSNTVAWYQQKPGKAPKLLIYYASNRYTGVPSRFSGSGSGTDFTFTISSLQPEDIATYYCQQDMRSPFTFGQGTKLEIK
4.6 nM | 4 nM | 105 nM | MTK-33.15 (antibody, human IgG1, V domains shown) VH: QVQLVQSGAEVKKPGASVKVSCKASGYTFTSYWMHWVRQAPGQGLEWIGVIDPSDNYINYNQKFQVRVTMTRDTSTSTVYMELSSLRSEDTAVYYCAREAGTRGYFDYWGQGTLVTVSS VL: DIQMTQSPSSLSASVGDRVTITCQASRSVSNTVAWYQQKPGKAPKLLIYYASNRYTGVPSRFSGSGSGTDFTFTISSLQPEDIATYYCQQDMRSPFTFGQGTKLEIK
8.6 nM | 7.9 nM | 230 nM | MTK-33.12 (antibody, V domains shown) VH: QVQLVQSGAEVKKPGASVKVSCKASGYTFVSYWMHWVRQAPGQGLEWIGVIDPSDNYINYNQKFRGRVTMTRDTSTSTVYMELSSLRSEDTAVYYCAREAGTRGYFDYWGQGTLVTVSS VL: DIQMTQSPSSLSASVGDRVTITCQASQSVSNTVAWYQQKPGKAPKLLIYYASNRYTGVPSRFSGSGSGTDFTFTISSLQPEDIATYYCRQDTRSPFTFGQGTKLELK
10.9 nM | 10.1 nM | 225 nM | MTK-33.16 (antibody, human IgG1, V domains shown) VH: QVQLVQSGAEVKKPGASVKVSCKASWYTFTSYWMHWVRQAPGQGLEWIGVIDPSDNYINYNQKFQGRVTMTRDTSTSTVYMELSSLRSEDTAVYYCAREAGTRGYFDYWGQGTLVTVSS VL: DIQMTQSPSSLSASVGDRVTITCQASRSVSNTVAWYQQKPGKAPKLLIYYASNRYTGVPSRFSGSGSGTDFTFTISSLQPEDIATYYCQQDYRSPFTFGQGTKLEIK
41 nM | 41 nM | 465 nM | MTK-33.8 (antibody, human IgG1, V domains shown) VH: QVQLVQSGAEVKKPGASVKVSCKASGYTFTSYWMHWVRQAPGQGLEWIGVIDPSDNYINYNQKFQGRVTMTRDTSTSTVYMELSSLRSEDTAVYYCAREAWTRGYFNYWGQGTLVTVSS VL: DIQMTQSPSSLSASVGDRVTITCQASQSVSRTVAWYQQKPGKAPKLLIYYASNRYTGVPSRFSGSGSGTDFTFTISSLQPEDIATYYCQQDYRSPFTFGQGTKLEIK
